Assay results as given in patent US20150118260A1.
Like-named read-outs stand apart in the source and are kept apart here.

Columns and labels:
[1] = molecular target: porcine CD80 on the porcine CD80-expressing B-cell lymphoma cell line LCL13271-5E4 (porcine)
[2] = molecular target: porcine CD80 on the porcine CD80-expressing B-cell lymphoma cell line LCL13271-5E4 (porcine); test: cell-based or functional assay
[3] = molecular target: porcine CD80 on the porcine CD80-expressing B-cell lymphoma cell line LCL13271-5E4 (porcine); test: flow cytometry on LCL13271-5E4 cells, MFI against concentration of biotinylated fusion toxin, non-linear least-squares fit

Work on “DT390-bi-pCTLA-4-Non-N-Gly-6xHis (bi-non-N-glycosylated soluble porcine CTLA-4 fusion toxin)” yielded a Kd [1] of 4.7 nM.

“DT390-pCTLA4-Non-N-Gly-6xHis (single non-N-glycosylated soluble porcine CTLA-4 fusion toxin)” gave a protein synthesis inhibition (3H-leucine incorporation) in LCL13271-5E4 cells [2] of 0.33 and a Kd [1] of 2 nM.

“DT390-pCTLA-4-Gly-6xHis (single glycosylated soluble porcine CTLA-4 fusion toxin)” was tested, and the protein synthesis inhibition (3H-leucine incorporation) in LCL13271-5E4 cells [2] was 0.67 and the Kd [3] was 17.3 nM.
